Source: patent US20230002480A1

Experiments:
Test in all cases: cell-based or functional assay
[1] = biological target: HIV-1 Env of pseudovirus 9004SS_A3_4 (HIV-1)
[2] = biological target: HIV-1 Env of pseudovirus Ce1086_B2 (HIV-1)
[3] = biological target: HIV-1 Env of pseudovirus CNE52 (HIV-1)
[4] = biological target: HIV-1 Env of pseudovirus 246F C1G (HIV-1)
[5] = biological target: HIV-1 Env of pseudovirus 263-8 (HIV-1)
[6] = biological target: HIV-1 Env of pseudovirus ZM135M.PL10a (HIV-1)
[7] = biological target: HIV-1 Env of pseudovirus HIV-0013095-2.11 (HIV-1)
[8] = biological target: HIV-1 Env of pseudovirus SC422661.8 (HIV-1)
[9] = biological target: HIV-1 Env of pseudovirus T257-31 (HIV-1)
[10] = biological target: HIV-1 Env of pseudovirus AC10.0.29 (HIV-1)
[11] = biological target: HIV-1 Env of pseudovirus PVO.4 (HIV-1)
[12] = biological target: HIV-1 Env of pseudovirus Q769.d22 (HIV-1)
[13] = biological target: HIV-1 Env of pseudovirus HIV-16055-2.3 (HIV-1)
[14] = biological target: HIV-1 Env of pseudovirus CNE21 (HIV-1)
[15] = biological target: HIV-1 Env of pseudovirus ZM197M.PB7 (HIV-1)
[16] = biological target: HIV-1 Env of pseudovirus TRJO4551.58 (HIV-1)
[17] = biological target: HIV-1 Env of pseudovirus THRO4156.18 (HIV-1)
[18] = biological target: HIV-1 Env of pseudovirus CNE19 (HIV-1)
[19] = biological target: HIV-1 Env of pseudovirus ZM247v1(Rev-) (HIV-1)
[20] = biological target: HIV-1 Env of pseudovirus SC05_8C11_2344 (HIV-1)

Which results are given for 10E8 (antibody)?
IC50, titer in TZM.bl cells [1]: 1.16 µg/mL; IC80, titer in TZM.bl cells [1]: 6.76 µg/mL; IC50, titer in TZM.bl cells [2]: 1.16 µg/mL; IC80, titer in TZM.bl cells [2]: 6.93 µg/mL; IC50, titer in TZM.bl cells [3]: 0.304 µg/mL; IC80, titer in TZM.bl cells [3]: 3.06 µg/mL; IC50, titer in TZM.bl cells [4]: 2.22 µg/mL; IC80, titer in TZM.bl cells [4]: 9.94 µg/mL; IC50, titer in TZM.bl cells [5]: 0.196 µg/mL; IC80, titer in TZM.bl cells [5]: 1.73 µg/mL; IC50, titer in TZM.bl cells [6]: 0.171 µg/mL; IC80, titer in TZM.bl cells [6]: 1.19 µg/mL; IC50, titer in TZM.bl cells [7]: 0.031 µg/mL; IC80, titer in TZM.bl cells [7]: 0.213 µg/mL; IC50, titer in TZM.bl cells [8]: 0.445 µg/mL; IC80, titer in TZM.bl cells [8]: 2.71 µg/mL; IC50, titer in TZM.bl cells [9]: 0.88 µg/mL; IC80, titer in TZM.bl cells [9]: 5.78 µg/mL; IC50, titer in TZM.bl cells [10]: 0.132 µg/mL; IC80, titer in TZM.bl cells [10]: 1.53 µg/mL; IC50, titer in TZM.bl cells [11]: 0.747 µg/mL; IC80, titer in TZM.bl cells [11]: > 10 µg/mL; IC50, titer in TZM.bl cells [12]: 1.67 µg/mL; IC80, titer in TZM.bl cells [12]: 10 µg/mL; IC50, titer in TZM.bl cells [13]: 0.722 µg/mL; IC80, titer in TZM.bl cells [13]: 6.5 µg/mL; IC50, titer in TZM.bl cells [14]: 1.9 µg/mL; IC80, titer in TZM.bl cells [14]: > 10 µg/mL; IC50, titer in TZM.bl cells [15]: 0.148 µg/mL; IC80, titer in TZM.bl cells [15]: 0.802 µg/mL; IC50, titer in TZM.bl cells [16]: 0.475 µg/mL; IC80, titer in TZM.bl cells [16]: 4.78 µg/mL; IC50, titer in TZM.bl cells [17]: 0.156 µg/mL; IC80, titer in TZM.bl cells [17]: 0.884 µg/mL; IC50, titer in TZM.bl cells [18]: 0.666 µg/mL; IC80, titer in TZM.bl cells [18]: 6.49 µg/mL; IC50, titer in TZM.bl cells [19]: 0.506 µg/mL; IC80, titer in TZM.bl cells [19]: 6.75 µg/mL; IC50, titer in TZM.bl cells [20]: 0.665 µg/mL; IC80, titer in TZM.bl cells [20]: 2.74 µg/mL

Which IC50 [2] does the source give for N49P9 (antibody) here?
The IC50 was 0.341 µg/mL.

And the IC80 [2]?
The IC80 was 1.69 µg/mL.

And the MPI [2]?
The MPI was 97.

And the IC50 [3]?
Its IC50 is 0.026 µg/mL.

What about the IC80 [3] of the same substance?
Its IC80 is 0.09 µg/mL.

What about the MPI [3] of the same substance?
The MPI was 100.

What about the IC50 [4] of the same substance?
The IC50 was greater than 50 µg/mL.

What about the IC80 [4] of the same substance?
The IC80 was greater than 50 µg/mL.

What about the MPI [4] of the same substance?
The MPI was 48.

And the IC50 [6]?
The IC50 was 0.224 µg/mL.

And the IC80 [6]?
The IC80 was 0.863 µg/mL.

What about the MPI [6] of the same substance?
Its MPI is 97.

And the IC50 [7]?
Its IC50 is 0.179 µg/mL.

What about the IC80 [7] of the same substance?
The IC80 was 0.635 µg/mL.

And the MPI [7]?
Its MPI is 100.

And the IC50 [8]?
The IC50 was 0.241 µg/mL.

What about the IC80 [8] of the same substance?
Its IC80 is 0.691 µg/mL.

What about the MPI [8] of the same substance?
Its MPI is 100.

What about the IC50 [10] of the same substance?
Its IC50 is 0.285 µg/mL.

And the IC80 [10]?
Its IC80 is 0.986 µg/mL.

What about the MPI [10] of the same substance?
Its MPI is 100.

And the IC50 [11]?
Its IC50 is 0.179 µg/mL.

And the IC80 [11]?
Its IC80 is 0.628 µg/mL.

And the MPI [11]?
The MPI was 100.

And the IC50 [12]?
The IC50 was 0.036 µg/mL.

What about the IC80 [12] of the same substance?
Its IC80 is 0.123 µg/mL.

And the MPI [12]?
Its MPI is 100.

And the IC50 [13]?
Its IC50 is 0.077 µg/mL.

And the IC80 [13]?
The IC80 was 0.274 µg/mL.

What about the MPI [13] of the same substance?
Its MPI is 100.

What about the IC50 [14] of the same substance?
The IC50 was greater than 50 µg/mL.

What about the IC80 [14] of the same substance?
The IC80 was greater than 50 µg/mL.

What about the MPI [14] of the same substance?
The MPI was 36.

And the IC50 [15]?
The IC50 was 0.083 µg/mL.

And the IC80 [15]?
The IC80 was 0.339 µg/mL.

What about the MPI [15] of the same substance?
The MPI was 100.

What about the IC50 [16] of the same substance?
The IC50 was 0.036 µg/mL.

What about the IC80 [16] of the same substance?
Its IC80 is 0.128 µg/mL.

What about the MPI [16] of the same substance?
The MPI was 100.

And the IC50 [17]?
The IC50 was 1.41 µg/mL.

What about the IC80 [17] of the same substance?
The IC80 was 8.21 µg/mL.

And the MPI [17]?
The MPI was 99.

What about the IC50 [18] of the same substance?
The IC50 was 0.031 µg/mL.

What about the IC80 [18] of the same substance?
The IC80 was 0.136 µg/mL.

And the MPI [18]?
Its MPI is 100.

What about the IC50 [19] of the same substance?
Its IC50 is 0.622 µg/mL.

What about the IC80 [19] of the same substance?
Its IC80 is 3.3 µg/mL.

And the MPI [19]?
The MPI was 100.

What about the IC50 [20] of the same substance?
The IC50 was 0.473 µg/mL.

What about the IC80 [20] of the same substance?
The IC80 was 1.61 µg/mL.

What about the MPI [20] of the same substance?
Its MPI is 100.

Which results are given for N49P9.1 (antibody)?
IC50 [2]: 0.814 µg/mL; IC80 [2]: 4.08 µg/mL; MPI [2]: 96; IC50 [3]: 0.043 µg/mL; IC80 [3]: 0.122 µg/mL; MPI [3]: 100; IC50 [4]: > 50 µg/mL; IC80 [4]: > 50 µg/mL; MPI [4]: 11; IC50 [6]: 0.332 µg/mL; IC80 [6]: 1.53 µg/mL; MPI [6]: 98; IC50 [7]: 0.358 µg/mL; IC80 [7]: 1.26 µg/mL; MPI [7]: 100; IC50 [8]: 0.127 µg/mL; IC80 [8]: 0.468 µg/mL; MPI [8]: 100; IC50 [10]: 0.36 µg/mL; IC80 [10]: 1.88 µg/mL; MPI [10]: 99; IC50 [11]: 0.181 µg/mL; IC80 [11]: 0.874 µg/mL; MPI [11]: 100; IC50 [12]: 0.039 µg/mL; IC80 [12]: 0.148 µg/mL; MPI [12]: 100; IC50 [13]: 0.102 µg/mL; IC80 [13]: 0.362 µg/mL; MPI [13]: 100; IC50 [14]: > 50 µg/mL; IC80 [14]: > 50 µg/mL; MPI [14]: 15; IC50 [15]: 0.049 µg/mL; IC80 [15]: 0.283 µg/mL; MPI [15]: 100; IC50 [16]: 0.035 µg/mL; IC80 [16]: 0.12 µg/mL; MPI [16]: 100; IC50 [17]: 1.65 µg/mL; IC80 [17]: 9.44 µg/mL; MPI [17]: 99; IC50 [18]: 0.033 µg/mL; IC80 [18]: 0.146 µg/mL; MPI [18]: 100; IC50 [19]: 1.88 µg/mL; IC80 [19]: 17.8 µg/mL; MPI [19]: 87; IC50 [20]: 1.3 µg/mL; IC80 [20]: 4.39 µg/mL; MPI [20]: 100

Which results are given for N49P19 (antibody)?
IC50 [2]: 0.613 µg/mL; IC80 [2]: 2.68 µg/mL; MPI [2]: 97; IC50 [3]: 0.175 µg/mL; IC80 [3]: 0.491 µg/mL; MPI [3]: 100; IC50 [4]: > 50 µg/mL; IC80 [4]: > 50 µg/mL; MPI [4]: 19; IC50 [6]: > 50 µg/mL; IC80 [6]: > 50 µg/mL; MPI [6]: 0; IC50 [7]: > 50 µg/mL; IC80 [7]: > 50 µg/mL; MPI [7]: 18; IC50 [8]: 0.425 µg/mL; IC80 [8]: 1.42 µg/mL; MPI [8]: 100; IC50 [10]: > 50 µg/mL; IC80 [10]: > 50 µg/mL; MPI [10]: 13; IC50 [11]: 0.85 µg/mL; IC80 [11]: 2.95 µg/mL; MPI [11]: 100; IC50 [12]: 0.14 µg/mL; IC80 [12]: 0.519 µg/mL; MPI [12]: 100; IC50 [13]: > 50 µg/mL; IC80 [13]: > 50 µg/mL; MPI [13]: 30; IC50 [14]: > 50 µg/mL; IC80 [14]: > 50 µg/mL; MPI [14]: 21; IC50 [15]: 38.4 µg/mL; IC80 [15]: > 50 µg/mL; MPI [15]: 56; IC50 [16]: 1.23 µg/mL; IC80 [16]: 5.4 µg/mL; MPI [16]: 99; IC50 [17]: 17.1 µg/mL; IC80 [17]: > 50 µg/mL; MPI [17]: 69; IC50 [18]: 20.7 µg/mL; IC80 [18]: > 50 µg/mL; MPI [18]: 59; IC50 [19]: > 50 µg/mL; IC80 [19]: > 50 µg/mL; MPI [19]: 5; IC50 [20]: 0.954 µg/mL; IC80 [20]: 3.3 µg/mL; MPI [20]: 100
